Test results reported in publication PMC7278938, “The MKK-Dependent Phosphorylation of p38α Is Augmented by Arginine Methylation on Arg49/Arg149 during Erythroid Differentiation” (International Journal of Molecular Sciences, 2020).

Assays:
Flag-p38α wild type [1] = biological target: T1, Flag-p38α wild type (UniProt Q16539 1-360); experiment: cell-based or functional assay
[2] = biological target: Flag-p38α R49/149K mutant (UniProt Q16539 1-360, R49/149K | R49/149K); experiment: cell-based or functional assay
Flag-p38α R49/149K mutant, sequence (Q16539 other isoform, or with tags, fused parts or gaps R49/149K | R49/149K | R49/149K | R49/149K | mutant): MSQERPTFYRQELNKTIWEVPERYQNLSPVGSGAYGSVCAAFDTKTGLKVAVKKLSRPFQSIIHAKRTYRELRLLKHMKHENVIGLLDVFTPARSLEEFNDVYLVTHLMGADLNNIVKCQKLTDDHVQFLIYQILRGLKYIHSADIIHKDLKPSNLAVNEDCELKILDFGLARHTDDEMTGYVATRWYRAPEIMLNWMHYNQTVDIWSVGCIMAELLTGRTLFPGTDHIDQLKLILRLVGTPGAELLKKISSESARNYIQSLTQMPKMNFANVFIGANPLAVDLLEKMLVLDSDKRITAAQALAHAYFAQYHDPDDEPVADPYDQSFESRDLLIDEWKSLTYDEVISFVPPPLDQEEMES

Flag-p38α wild type [3] = biological target: T1, Flag-p38α wild type; experiment: co-IP; Flag-p38α immunoprecipitated with anti-Flag antibodies and protein G agarose at 4 °C from lysates (1 mg) of p38α-knockdown K562 cells after AraC (1 μM, 5 h); lysis buffer 150 mM NaCl, 20 mM Tris pH 7.4, 0.2% Triton X-100; partners detected by Western blot and quantified; in Figure 6D with or without HA-PRMT1; details: partners not purified

T1 sequence (Q16539 whole entry): as the sequence (Q16539 other isoform, or with tags, fused parts or gaps R49/149K | R49/149K | R49/149K | R49/149K | mutant) above, with K49R, K149R counted along it

B1: MAPK kinase 3 (MKK3) (enzyme, human (endogenous in K562), UniProt P46734 1-347, looked up)
chain: MESPASSQPASMPQSKGKSKRKKDLRISCMSKPPAPNPTPPRNLDSRTFITIGDRNFEVEADDLVTISELGRGAYGVVEKVRHAQSGTIMAVKRIRATVNSQEQKRLLMDLDINMRTVDCFYTVTFYGALFREGDVWICMELMDTSLDKFYRKVLDKNMTIPEDILGEIAVSIVRALEHLHSKLSVIHRDVKPSNVLINKEGHVKMCDFGISGYLVDSVAKTMDAGCKPYMAPERINPELNQKGYNVKSDVWSLGITMIEMAILRFPYESWGTPFQQLKQVVEEPSPQLPADRFSPEFVDFTAQCLRKNPAERMSYLELMEHPFFTLHKTKKTDIAAFVKEILGEDS
notes: MKK3 (MAPK kinase 3), endogenous in human K562 cells, detected with anti-MKK3 (Cell Signaling #5674); source: endogenous, K562 lysate
Flag-p38α wild type [1]
  sorbitol (150 mM)-induced activation phosphorylation of Flag-p38α at 0.5 h (Western blot with anti-phospho-p38): ~4 fold
[2]
  sorbitol (150 mM)-induced activation phosphorylation of Flag-p38α at 0.5 h (Western blot with anti-phospho-p38): ~2 fold
Flag-p38α wild type [3]
  fold change of the interaction with HA-PRMT1 against without: 1.7 fold
